Positions count from the first letter of the chain named. Each block holds one binder with its values, some of them ahead of it.
Columns and labels:
[1] = target: T1, human CD151 protein (human, UniProt P48509 1-253); test: saturation binding of 125I-labelled antibody to PC3 cells, 1 hour at 4°C, Scatchard analysis
T1 construct: whole, on cells; in HT-29 cell lysate in the Western blots; also called PETA-3; SFA-1
T1 sequence (looked up): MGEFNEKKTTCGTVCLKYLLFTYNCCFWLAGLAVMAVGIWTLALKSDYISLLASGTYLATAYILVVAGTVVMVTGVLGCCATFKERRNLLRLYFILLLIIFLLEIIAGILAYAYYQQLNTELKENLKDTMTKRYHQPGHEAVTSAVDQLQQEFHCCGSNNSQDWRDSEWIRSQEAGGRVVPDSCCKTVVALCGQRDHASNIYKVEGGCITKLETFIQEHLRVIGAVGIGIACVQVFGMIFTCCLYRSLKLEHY
Method: The affinity of the 2 radiolabelled antibodies for their CD151 target on the cell surface was then measured for PC3 prostate cancer cells. The dissociation constant KD of the antibodies was determined by the method of Scatchard. […] After incubation, the total radioactivity associated with the cells (fixed radiolabelled antibody) was measured using a gamma counter. The non-specific fixing was determined, for each concentration tested, in the presence of an excess of non-radiolabelled antibody (×100). The specific fixing is calculated by subtracting the non-specific radioactivity from the total radioactivity.

[2] = target: T1, human CD151 protein; test: flow cytometry, 10 µg/ml antibody on BxPC3 cells
Method: (§1) The flow cytometry analyses are carried out on 96-well plates. The undiluted hybridoma supernatants are added to 100000 PC3 cells previously introduced into the wells. After incubation for 20 minutes at +4° C. followed by washing, an Alexa488-labelled goat anti-mouse IgG polyclonal antibody (Molecular Probes, dilution to 1/500) is added. The fluorescence intensity (MFI) is determined with the aid of a cytofluorimeter after further incubation for 20 minutes at +4° C.
(§2) The isotypes of the antibodies produced were determined for each culture supernatant using a murine antibody isotyping kit (SBA clonotyping system, Southern Biotech), and then final characterisation was carried out by ELISA (extracellular loop EC2) and by flow cytometry on the murine line NIH 3T3 and the stable transfectant NIH 3T3-CD151, and then on human tumour lines of lung cancer A549, prostate cancer DU145 and pancreatic cancer BxPC3 under the conditions previously described. The antibody concentration of the supernatants was adjusted to 5 μg/ml for the ELISA and to 10 μg/ml for the flow cytometry analyses.

[3] = target: T2, recombinant extracellular loop EC2 of human CD151 (amino acids 130 to 221, C-terminal Poly-His tail) (human, UniProt P48509 130-221); test: ELISA, undiluted hybridoma supernatant on coated recombinant EC2 loop (5 µg/ml)
T2 construct: range 130-221; Expressed in soluble form in the periplasm of E. coli from pET22b and purified by IMAC; also called recombinant EC2; recombinant EC2 loop; not shown: Poly-His tail at the C-terminal position
T2 sequence (looked up): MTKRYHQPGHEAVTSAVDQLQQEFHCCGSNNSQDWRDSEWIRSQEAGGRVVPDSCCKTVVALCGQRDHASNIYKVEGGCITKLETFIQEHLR

[4] = target: T1, human CD151 protein; test: flow cytometry, 10 µg/ml antibody on NIH3T3-CD151 transfectant cells
Method: as §1, §2

[5] = target: T1, human CD151 protein; test: flow cytometry, undiluted hybridoma supernatant on PC3 cells
Method: as §1

[6] = target: T1, human CD151 protein; test: flow cytometry, 10 µg/ml antibody on DU145 cells
Method: as §1, §2

[7] = target: T1, human CD151 protein; test: flow cytometry, 10 µg/ml antibody on A549 cells
Method: as §1, §2

[8] = target: T2, recombinant extracellular loop EC2 of …; test: ELISA, clone supernatant at 5 µg/ml antibody on coated recombinant EC2 loop
Method: For the ELISA, 96-well plates are sensitised for 1 night at +4° C. with the recombinant extracellular loop EC2 at 5 μg/ml in PBS. After washing with PBS, the wells are saturated with 0.5% gelatin solution in PBS for 1 hour at 37° C. and then washed again with PBS. The hybridoma culture supernatants are evaluated without dilution (incubation for 1 hour at 37° C.). The antibodies fixed to the immobilised EC2 loop are detected by successive incubation with a peroxidase-conjugated goat anti-mouse IgG polyclonal antibody (Jackson/USA, dilution to 1/5000, 1 hour at 37° C.) and then with a peroxidase substrate (TMB, Interchim/France, 10 minutes at ambient temperature). The reaction is stopped by addition of 1M sulfuric acid and the optical density (OD) is measured at 450 nm.
The antibody concentration of the supernatants was adjusted to 5 μg/ml for the ELISA and to 10 μg/ml for the flow cytometry analyses.

[9] = target: T2, recombinant extracellular loop EC2 of …; test: competition ELISA on coated recombinant EC2; competitor murine 203B6 at 80 ng/ml, detected with anti-mouse IgG
Method: (§3) Briefly, 96-well ELISA plates were coated with recombinant EC2 at 5 μg/ml in PBS overnight at 4° C. […] For control experiments, no murine antibody was added. Horseradish peroxidase-conjugated polyclonal goat anti-mouse IgG was added at a 1/5000 dilution in PBS and incubated for 1 h at 37° C. After incubation with the peroxidase substrate TMB for 10 min at room temperature, the reaction was stopped with 1 M sulfuric acid and the optical density at 450 nm was measured.

[10] = target: T2, recombinant extracellular loop EC2 of …; test: competition ELISA on coated recombinant EC2; competitor murine 214B2 at 80 ng/ml, detected with anti-mouse IgG
Method: as §3

B1: murine monoclonal antibody 203B6 (hybridoma CNCM I-3920) (antibody, mouse IgG1, V domains shown)
VH: EVKLVESGGGLVQPGGSLKLSCAASGFTFSTYTMSWVRQTPEKRLEWVAYISSGGGTTYYPDTVKGRFTISRDNARNTLYLQMNSLKSEDTAMYYCATPRIGTGFAYWGQGTLVTVSA
VL: DIVLSQSPASLALSLGQRATISCRASASVEYYGTSLMHWYQQKPGQPPKLLIYEASNVESGVPARFSGSGSGTDFSLNIHPVEEDDLAIYFCQQSRKAPYTFGGGTKLEIK
notes: also called 203B6 cl1A; [125I]-203B6
Kd [1]: 12.8 nM
MFI [2]: 768 MFI
OD 450 nm [3]: 1.13 OD 450 nm
MFI [4]: 540 MFI
MFI [5]: 975 MFI
MFI [6]: 860 MFI
MFI [7]: 675 MFI
OD at 450 nm [8]: 2.22 OD at 450 nm

B2: chimeric antibody c203B6[IgG1] (antibody, V domains shown)
VH: B1 VH
VL: DIVLSQSPASLALSLGQRATISCRASASVEYYGTSLMHWYQQKPGQPPKLLIYEASNVESGVPARFSGSGSGTDFSLNIHPVEEDDLAIYFCQQSRKAPYTFGGGTKLEIKR
notes: Variable domains of murine 203B6 fused to human Ckappa and human IgG1 constant domains; made in HEK293/EBNA cells; VL' and 'IgG1 Chim
IC50 [9]: 0.71 µg/mL

B5: chimeric antibody c214B2[IgG1] (antibody, V domains shown)
VH: QVQLQQPGSVLVRPGASVKLSCKASGYTFTSSSMHWAKQRPGQGLEWIGEIHPNSGNTNNNEKFKGKATLTVDTSSSTAYVDLSSLSSEDSAVYYCARARSFYYAMDCWGQGTSVTVSS
VL: NIVMTQSPKSMSMSVGERVTLSCKASENVGTYVSWYQQKPEQSPKLLIYGASNRYTGVPDRFTGSGSATDFTLTISSVQAEDLADYHCGQTYSFPYTFGGGTKLEIKR
notes: Variable domains of murine 214B2 fused to human Ckappa and human IgG1 constant domains; made in HEK293/EBNA cells; VL' and 'IgG1 Chim
IC50 [10]: 0.69 µg/mL

B6: murine monoclonal antibody 205H8 (hybridoma CNCM I-3921) (antibody, mouse IgG3, V domains shown)
VH: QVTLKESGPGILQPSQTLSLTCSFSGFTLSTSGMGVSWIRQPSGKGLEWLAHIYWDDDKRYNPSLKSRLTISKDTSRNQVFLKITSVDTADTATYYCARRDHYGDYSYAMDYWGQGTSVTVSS
VL: DIVMTQSQKFMSTSEGDRVSITCKASQNVGIAVAWYQQKPGQSPKLLIYSASNRYTGVPDRFTGSGSGTDFTLTISNMQSEDLADYFCQQYSSNPTFGAGTKLELK
notes: also called 205H8 cl1A
MFI [2]: 350 MFI
OD 450 nm [3]: 0.649 OD 450 nm
MFI [4]: 332 MFI
MFI [5]: 595 MFI
MFI [6]: 584 MFI
MFI [7]: 388 MFI
OD at 450 nm [8]: 1.84 OD at 450 nm

Continued, values first:

MFI [2]: 536 MFI
OD 450 nm [3]: 0.959 OD 450 nm
MFI [4]: 556 MFI
MFI [5]: 936 MFI
MFI [6]: 524 MFI
MFI [7]: 481 MFI
OD at 450 nm [8]: 2.3 OD at 450 nm
B3: murine monoclonal antibody 211F3 (hybridoma CNCM I-3918) (antibody, mouse IgG1, V domains shown)
VH: B1 VH with G10D, G56V, V64I, R76K, Y80F, A97T, T98S, I101T
VL: B1 VL with S5T, E30D, H38Q
notes: also called 211F3 cl1A

Kd [1]: 6.38 nM
MFI [2]: 849 MFI
OD 450 nm [3]: 0.684 OD 450 nm
MFI [4]: 748 MFI
MFI [5]: 1000 MFI
MFI [6]: 1330 MFI
MFI [7]: 820 MFI
OD at 450 nm [8]: 2.48 OD at 450 nm
B4: murine monoclonal antibody 214B2 (hybridoma CNCM I-3919) (antibody, mouse IgG1, V domains shown)
VH: B5 VH
VL: NIVMTQSPKSMSMSVGERVTLSCKASENVGTYVSWYQQKPEQSPKLLIYGASNRYTGVPDRFTGSGSATDFTLTISSVQAEDLADYHCGQTYSFPYTFGGGTKLEIK
notes: also called 214B2 cl1A; [125I]-214B2

Reference: US20100150902A1 (published 2010)
